Assay results taken from PMC7738170.

Key:
[1] = molecular target: T1, 6xHis-DnaA (Mtb) (Mycobacterium tuberculosis) (UniProt P9WNW3); experiment: EMSA
T1 sequence: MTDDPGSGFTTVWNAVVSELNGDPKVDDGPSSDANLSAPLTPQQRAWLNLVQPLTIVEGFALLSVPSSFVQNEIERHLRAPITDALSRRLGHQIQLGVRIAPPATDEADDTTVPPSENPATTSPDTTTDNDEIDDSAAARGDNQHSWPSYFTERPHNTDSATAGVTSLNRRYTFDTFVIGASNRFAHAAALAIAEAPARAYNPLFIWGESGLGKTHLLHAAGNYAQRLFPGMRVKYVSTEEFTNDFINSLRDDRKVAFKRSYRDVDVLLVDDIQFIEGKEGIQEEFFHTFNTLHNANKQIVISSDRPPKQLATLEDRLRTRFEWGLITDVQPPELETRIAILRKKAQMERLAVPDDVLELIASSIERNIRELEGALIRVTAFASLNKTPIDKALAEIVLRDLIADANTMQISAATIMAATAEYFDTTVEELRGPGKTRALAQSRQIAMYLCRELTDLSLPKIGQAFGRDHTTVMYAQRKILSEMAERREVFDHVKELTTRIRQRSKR

[2] = system: 6xHis-DnaA (Mtb) (Mycobacterium tuberculosis); experiment: EMSA

Substance | binding [1] | Kd [2]
CCCTACACGACGCTCTTCCGACCCTCTCACCACTGCAGACAAAGTTATCCACAGACGCTATCAACAGTGGGGATGAATCACATGCGTGTGATTGAGTGACCAAAAGGTTGCTGGCACAGTAACGACCCGACCAGAATATGAATTCATTCTATCGGCGGCG (double strand) [Rv0010c-Rv0011c intergenic fragment] | binds | 
oriC fragment |  | 0.07 µM
